Data reported in PMC5499601 (Nucleic Acids Research, 2017).
Where a chain is given by its changes, count along the chain named.

What was measured:
Experiment in all cases: EMSA
[1] = target: T1, BsSpo0J M104A (UniProt P26497 1-282, M104A)
T1 sequence: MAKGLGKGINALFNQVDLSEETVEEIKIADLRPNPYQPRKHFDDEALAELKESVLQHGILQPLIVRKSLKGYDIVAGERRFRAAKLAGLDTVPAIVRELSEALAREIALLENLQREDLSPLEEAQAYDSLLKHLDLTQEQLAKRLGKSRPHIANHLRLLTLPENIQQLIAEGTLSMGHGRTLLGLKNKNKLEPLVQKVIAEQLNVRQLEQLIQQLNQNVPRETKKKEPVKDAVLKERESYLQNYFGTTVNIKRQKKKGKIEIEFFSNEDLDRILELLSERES

[2] = target: T2, BsSpo0J R39A (UniProt P26497 1-282, R39A)
T2 sequence: T1 sequence with R39A, A104M

[3] = target: T3, BsSpo0J Q140A (UniProt P26497 1-282, Q140A)
T3 sequence: T1 sequence with A104M, Q140A

[4] = target: T4, BsSpo0J L60E (UniProt P26497 1-282, L60E)
T4 sequence: T1 sequence with L60E, A104M

[5] = target: T5, BsSpo0J Q140R (UniProt P26497 1-282, Q140R)
T5 sequence: T1 sequence with A104M, Q140R

[6] = target: T6, BsSpo0J R82A (UniProt P26497 1-282, R82A)
T6 sequence: T1 sequence with R82A, A104M

[7] = target: T7, BsSpo0J F81A (UniProt P26497 1-282, F81A)
T7 sequence: T1 sequence with F81A, A104M

[8] = target: T8, BsSpo0J R80A (UniProt P26497 1-282, R80A)
T8 sequence: T1 sequence with R80A, A104M

[9] = target: T9, BsSpo0J Q61A (UniProt P26497 1-282, Q61A)
T9 sequence: T1 sequence with Q61A, A104M

Measured: binding result

B1: 39-bp parS (dsDNA)
DNA 1: CAGTTGAATCAGAATGTTCCACGTGAAACAAAGAAAAAA
DNA 2: TTTTTTCTTTGTTTCACGTGGAACATTCTGATTCAACTG
binds: [1]

B2: 24-bp parS (dsDNA)
DNA 1: AGAATGTTCCACGTGAAACAAAGA
DNA 2: TCTTTGTTTCACGTGGAACATTCT
not listed: [1]
binds: all other assays above
